The results in this text go back to doi:10.1101/2020.09.30.318261.

For the test, the target named is SARS-CoV-2 prefusion stabilised spike ectodomain trimer (SARS-CoV-2) (UniProt P0DTC2). Kind of test: cryo-EM structure.

By stoichiometry N is commonly meant a count of units in the complex or per binding partner. “SARS-CoV-2 prefusion stabilised spike ectodomain trimer (from UniProt P0DTC2 14-1200) (domain or fragment)” yielded a stoichiometry N of 3.
